# T1: FcγRIIb (human, UniProt P31994 43-217)
# T1 construct: extracellular domain; also called FcgRIIb; 2b
# T1 sequence (looked up): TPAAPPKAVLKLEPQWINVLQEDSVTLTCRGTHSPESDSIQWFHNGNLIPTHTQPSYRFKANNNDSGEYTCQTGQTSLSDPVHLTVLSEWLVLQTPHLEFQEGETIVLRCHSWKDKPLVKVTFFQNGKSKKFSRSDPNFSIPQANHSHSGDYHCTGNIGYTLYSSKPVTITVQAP
# Assays:
# FcγRIIIa = molecular target: T2, FcγRIIIa (human, UniProt P08637 17-208); experiment: SPR (Biacore), relative binding
# T2 construct: extracellular domain; also called FcgRIIIa; 3a
# T2 sequence (P08637 17-208): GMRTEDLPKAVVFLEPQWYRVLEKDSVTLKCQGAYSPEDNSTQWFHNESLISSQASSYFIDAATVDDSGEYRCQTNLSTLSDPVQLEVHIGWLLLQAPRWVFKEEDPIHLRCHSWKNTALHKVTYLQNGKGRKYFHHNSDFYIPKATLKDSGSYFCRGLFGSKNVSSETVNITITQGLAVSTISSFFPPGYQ
# FcγRIIb = molecular target: T1, FcγRIIb; experiment: SPR (Biacore), relative binding
Binder,He/Con_3a (FcγRIIIa),He/Con_2b (FcγRIIb)
"GpH7-A5/GpH7-B3 variant L328_14T/GpL16-k0 (antibody, human IgG1, kappa, mutation in the GpH7-B3 chain only; also called He Ab) heavy 1: not shown heavy 2: not shown light: DIVMTQSPLSLPVTPGEPASISCQASESLVHSNRNTYLHWYLQKPGQSPQLLIYKVSNRFSGVPDRFSGSGSGTDFTLKISRVEAEDVGVYYCSQNTHVPPTFGQGTKVEIERTVAAPSVFIFPPSDEQLKSGTASVVCLLNNFYPREAKVQWKVDNALQSGNSQESVTEQDSKDSTYSLSSTLTLSKADYEKHKVYACEVTHQGLSSPVTKSFNRGEC",75.3 % of GpH7-A5/GpH7-B3/GpL16-k0,141 % of GpH7-A5/GpH7-B3/GpL16-k0
"GpH7-A5/GpH7-B3 variant L328_15Y/GpL16-k0 (antibody, human IgG1, kappa, mutation in the GpH7-B3 chain only; also called He Ab) heavy 1: not shown heavy 2: not shown light: DIVMTQSPLSLPVTPGEPASISCQASESLVHSNRNTYLHWYLQKPGQSPQLLIYKVSNRFSGVPDRFSGSGSGTDFTLKISRVEAEDVGVYYCSQNTHVPPTFGQGTKVEIERTVAAPSVFIFPPSDEQLKSGTASVVCLLNNFYPREAKVQWKVDNALQSGNSQESVTEQDSKDSTYSLSSTLTLSKADYEKHKVYACEVTHQGLSSPVTKSFNRGEC",68.3 % of GpH7-A5/GpH7-B3/GpL16-k0,193 % of GpH7-A5/GpH7-B3/GpL16-k0
"GpH7-A5/GpH7-B3 variant L328_19Q/GpL16-k0 (antibody, human IgG1, kappa, mutation in the GpH7-B3 chain only; also called He Ab) heavy 1: not shown heavy 2: not shown light: DIVMTQSPLSLPVTPGEPASISCQASESLVHSNRNTYLHWYLQKPGQSPQLLIYKVSNRFSGVPDRFSGSGSGTDFTLKISRVEAEDVGVYYCSQNTHVPPTFGQGTKVEIERTVAAPSVFIFPPSDEQLKSGTASVVCLLNNFYPREAKVQWKVDNALQSGNSQESVTEQDSKDSTYSLSSTLTLSKADYEKHKVYACEVTHQGLSSPVTKSFNRGEC",81.1 % of GpH7-A5/GpH7-B3/GpL16-k0,105 % of GpH7-A5/GpH7-B3/GpL16-k0
"GpH7-A5/GpH7-B3 variant L328_20W/GpL16-k0 (antibody, human IgG1, kappa, mutation in the GpH7-B3 chain only; also called He Ab) heavy 1: not shown heavy 2: not shown light: DIVMTQSPLSLPVTPGEPASISCQASESLVHSNRNTYLHWYLQKPGQSPQLLIYKVSNRFSGVPDRFSGSGSGTDFTLKISRVEAEDVGVYYCSQNTHVPPTFGQGTKVEIERTVAAPSVFIFPPSDEQLKSGTASVVCLLNNFYPREAKVQWKVDNALQSGNSQESVTEQDSKDSTYSLSSTLTLSKADYEKHKVYACEVTHQGLSSPVTKSFNRGEC",37.4 % of GpH7-A5/GpH7-B3/GpL16-k0,235 % of GpH7-A5/GpH7-B3/GpL16-k0

# The remaining lines, values ahead:
He/Con_3a (FcγRIIIa),He/Con_2b (FcγRIIb),Binder
30.3 % of GpH7-A5/GpH7-B3/GpL16-k0,111 % of GpH7-A5/GpH7-B3/GpL16-k0,"GpH7-A5/GpH7-B3 variant N325_03V/GpL16-k0 (antibody, human IgG1, kappa, mutation in the GpH7-B3 chain only; also called He Ab) heavy 1: not shown heavy 2: not shown light: DIVMTQSPLSLPVTPGEPASISCQASESLVHSNRNTYLHWYLQKPGQSPQLLIYKVSNRFSGVPDRFSGSGSGTDFTLKISRVEAEDVGVYYCSQNTHVPPTFGQGTKVEIERTVAAPSVFIFPPSDEQLKSGTASVVCLLNNFYPREAKVQWKVDNALQSGNSQESVTEQDSKDSTYSLSSTLTLSKADYEKHKVYACEVTHQGLSSPVTKSFNRGEC"
20.7 % of GpH7-A5/GpH7-B3/GpL16-k0,143 % of GpH7-A5/GpH7-B3/GpL16-k0,"GpH7-A5/GpH7-B3 variant N325_04F/GpL16-k0 (antibody, human IgG1, kappa, mutation in the GpH7-B3 chain only; also called He Ab) heavy 1: not shown heavy 2: not shown light: DIVMTQSPLSLPVTPGEPASISCQASESLVHSNRNTYLHWYLQKPGQSPQLLIYKVSNRFSGVPDRFSGSGSGTDFTLKISRVEAEDVGVYYCSQNTHVPPTFGQGTKVEIERTVAAPSVFIFPPSDEQLKSGTASVVCLLNNFYPREAKVQWKVDNALQSGNSQESVTEQDSKDSTYSLSSTLTLSKADYEKHKVYACEVTHQGLSSPVTKSFNRGEC"
31.4 % of GpH7-A5/GpH7-B3/GpL16-k0,217 % of GpH7-A5/GpH7-B3/GpL16-k0,"GpH7-A5/GpH7-B3 variant N325_06M/GpL16-k0 (antibody, human IgG1, kappa, mutation in the GpH7-B3 chain only; also called He Ab) heavy 1: not shown heavy 2: not shown light: DIVMTQSPLSLPVTPGEPASISCQASESLVHSNRNTYLHWYLQKPGQSPQLLIYKVSNRFSGVPDRFSGSGSGTDFTLKISRVEAEDVGVYYCSQNTHVPPTFGQGTKVEIERTVAAPSVFIFPPSDEQLKSGTASVVCLLNNFYPREAKVQWKVDNALQSGNSQESVTEQDSKDSTYSLSSTLTLSKADYEKHKVYACEVTHQGLSSPVTKSFNRGEC"
28.7 % of GpH7-A5/GpH7-B3/GpL16-k0,171 % of GpH7-A5/GpH7-B3/GpL16-k0,"GpH7-A5/GpH7-B3 variant N325_07I/GpL16-k0 (antibody, human IgG1, kappa, mutation in the GpH7-B3 chain only; also called He Ab) heavy 1: not shown heavy 2: not shown light: DIVMTQSPLSLPVTPGEPASISCQASESLVHSNRNTYLHWYLQKPGQSPQLLIYKVSNRFSGVPDRFSGSGSGTDFTLKISRVEAEDVGVYYCSQNTHVPPTFGQGTKVEIERTVAAPSVFIFPPSDEQLKSGTASVVCLLNNFYPREAKVQWKVDNALQSGNSQESVTEQDSKDSTYSLSSTLTLSKADYEKHKVYACEVTHQGLSSPVTKSFNRGEC"
33.3 % of GpH7-A5/GpH7-B3/GpL16-k0,197 % of GpH7-A5/GpH7-B3/GpL16-k0,"GpH7-A5/GpH7-B3 variant N325_08L/GpL16-k0 (antibody, human IgG1, kappa, mutation in the GpH7-B3 chain only; also called He Ab) heavy 1: not shown heavy 2: not shown light: DIVMTQSPLSLPVTPGEPASISCQASESLVHSNRNTYLHWYLQKPGQSPQLLIYKVSNRFSGVPDRFSGSGSGTDFTLKISRVEAEDVGVYYCSQNTHVPPTFGQGTKVEIERTVAAPSVFIFPPSDEQLKSGTASVVCLLNNFYPREAKVQWKVDNALQSGNSQESVTEQDSKDSTYSLSSTLTLSKADYEKHKVYACEVTHQGLSSPVTKSFNRGEC"
48 % of GpH7-A5/GpH7-B3/GpL16-k0,124 % of GpH7-A5/GpH7-B3/GpL16-k0,"GpH7-A5/GpH7-B3 variant N325_09D/GpL16-k0 (antibody, human IgG1, kappa, mutation in the GpH7-B3 chain only; also called He Ab) heavy 1: not shown heavy 2: not shown light: DIVMTQSPLSLPVTPGEPASISCQASESLVHSNRNTYLHWYLQKPGQSPQLLIYKVSNRFSGVPDRFSGSGSGTDFTLKISRVEAEDVGVYYCSQNTHVPPTFGQGTKVEIERTVAAPSVFIFPPSDEQLKSGTASVVCLLNNFYPREAKVQWKVDNALQSGNSQESVTEQDSKDSTYSLSSTLTLSKADYEKHKVYACEVTHQGLSSPVTKSFNRGEC"
